Measurements from the supplement of paper PMC10724198.
± gives the standard deviation of the averaged measurements.

System: Saccharomyces cerevisiae
Assay: protein stability index of tFT-peptide fusion (C-terminal peptide) (PSI (0-1 scale)); higher = more stable (slower turnover)
Details: genetic background: wild type; temperature: 30 C
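Further: PSI is a weighted mean of sequencing reads over stability bins, variants kept only with over 10 reads, mCherry proximal and sfGFP distal, peptide attached via GGGS linker.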

Row | Sequence | protein stability index
1 | WLEVHVRERPGL | 0.661 ± 0.035
2 | WLFFVCEDAGGC | 0.68 ± 0.021
3 | WLPTTPLPPLSP | 0.703 ± 0.018
4 | WLVRRVSSGQFG | 0.653 ± 0.062
5 | WNCRILGLVMRG | 0.695 ± 0.029
6 | WNFVCGVFFATG | 0.543 ± 0.056
7 | WNPHFHALSWRL | 0.684 ± 0.019
8 | WPAPLPPTRPLP | 0.722 ± 0.038
9 | WPCGGLRFSLPY | 0.674 ± 0.029
10 | WPHGHVNTHRIG | 0.737 ± 0.038
11 | WPKNSTNHSWKW | 0.744 ± 0.035
12 | WPVPPASYPALS | 0.728 ± 0.14
13 | WQCRAPRFEKGV | 0.696 ± 0.08
14 | WQGLGGARGCML | 0.691 ± 0.066
15 | WRGEMGGSGGQA | 0.713 ± 0.032
16 | WRGLGWSDAGGG | 0.654 ± 0.043
17 | WRGRCGPVLGFC | 0.659 ± 0.027
18 | WRLVREGRMRGG | 0.742 ± 0.031
19 | WRRGIRAKIDSI | 0.678 ± 0.015
20 | WRRPRVLWVSSR | 0.637 ± 0.0079
21 | WRVFPVVSCSSS | 0.6312 ± 0.0053
22 | WSGKRAKGISEK | 0.682 ± 0.04
23 | WSGVFSCTLSIT | 0.567 ± 0.038

Row | Sequence | protein stability index
24 | WSPFSLISLSPP | 0.725 ± 0.099
25 | WSSLSCACVVPF | 0.726 ± 0.065
26 | WSSTTISVQRGL | 0.7 ± 0.089
27 | WSSVSGEFRSLW | 0.707 ± 0.035
28 | WSVHGLGSVSIY | 0.707 ± 0.014
29 | WSYGHVPYDYPF | 0.73 ± 0.022
30 | WTLSDTRHVLPV | 0.6683 ± 0.00084
31 | WTSGCLEIFRRE | 0.702 ± 0.033
32 | WVESGGGCVGRI | 0.706 ± 0.039
33 | WVGSGRVWVKLG | 0.708 ± 0.0092
34 | WVGVGMRTNGLG | 0.679 ± 0.072
35 | WVLGGSWLRCRK | 0.726 ± 0.014
36 | WVNRFVFFSPST | 0.615 ± 0.11
37 | WVPGAAGFTGSL | 0.74 ± 0.049
38 | WVVRVMYTSSGK | 0.556 ± 0.035
39 | WWASFVGSFVGD | 0.878 ± 0.15
40 | WWEFSCGFVVGG | 0.671 ± 0.098
41 | WWGSGGREPGGS | 0.739 ± 0.05
42 | WWSASGGQDVLK | 0.67 ± 0.061
43 | WYHALTLASWLS | 0.577 ± 0.021
44 | YAGARGPMNRGS | 0.701 ± 0.015
45 | YARLAWDFRRSP | 0.737 ± 0.019
46 | YATAICRSGCLK | 0.699 ± 0.037

Row | Sequence | protein stability index
47 | YCAMVSVGVVGG | 0.534 ± 0.0076
48 | YCGGRWGGWEIG | 0.684 ± 0.0037
49 | YCHLNLHGCKGC | 0.636 ± 0.023
50 | YCTAGVCVKAGR | 0.765 ± 0.027
51 | YCVCACCASLLA | 0.538 ± 0.025
52 | YDELEKADKQEE | 0.6723 ± 0.0061
53 | YEEGRGEWIKKI | 0.632 ± 0.051
54 | YESISGLGHLSG | 0.6962 ± 0.005
55 | YEYPRVTFSPQT | 0.7878 ± 0.005
56 | YFESKWKYAGVR | 0.699 ± 0.0074
57 | YFFDYGVSRVLS | 0.584 ± 0.015
58 | YFSSGGITVSLC | 0.664 ± 0.066
59 | YFVSCACSSYFV | 0.601 ± 0.02
60 | YGAVRFTLIPLQ | 0.639 ± 0.024
61 | YGCSLFCPDCSI | 0.794 ± 0.15
62 | YGFLRSWCICDT | 0.729 ± 0.098
63 | YGGDMHGNNFSG | 0.701 ± 0.011
64 | YGGRGFKGYYGG | 0.776 ± 0.02
65 | YGIGNVNTGRGP | 0.703 ± 0.011
66 | YGNTQFLTQTWY | 0.705 ± 0.021
67 | YGSYVVNSLYLS | 0.616 ± 0.0097
68 | YGYMTNNCLLSI | 0.649 ± 0.041
69 | YIHGFRLFGCVD | 0.668 ± 0.031

Row | Sequence | protein stability index
70 | YKGKFTILESLK | 0.665 ± 0.027
71 | YKVKADRVRHRR | 0.692 ± 0.013
72 | YLALSAPKERTH | 0.703 ± 0.033
73 | YLFSTGSTLHSH | 0.818 ± 0.088
74 | YLPKLSTYRLLR | 0.654 ± 0.032
75 | YLPRPPPTTALL | 0.74 ± 0.087
76 | YLQESLVEMWIV | 0.65 ± 0.056
77 | YLSFYRLLDSST | 0.664 ± 0.007
78 | YLSPSTPLPVVL | 0.64 ± 0.1
79 | YLTCTLLSQPIY | 0.542 ± 0.027
80 | YLVGVRDSFALR | 0.715 ± 0.02
81 | YMGGGGASGAPA | 0.667 ± 0.047
82 | YNKKKKRYKKKF | 0.72 ± 0.0076
83 | YNMGILASQGCG | 0.665 ± 0.046
84 | YNSRKQKKREKK | 0.706 ± 0.027
85 | YPIFSPFSLPAL | 0.59 ± 0.0073
86 | YPLPPPRPPCLP | 0.664 ± 0.063
87 | YPYRKRTIGVRT | 0.595 ± 0.015
88 | YQRENYERKGYR | 0.681 ± 0.067
89 | YQVTEEKLIMTQ | 0.674 ± 0.036
90 | YREVGGVAERRR | 0.695 ± 0.044
91 | YRGSNWEGDTPS | 0.667 ± 0.054
92 | YRPPPLSPPSPP | 0.695 ± 0.013

Row | Sequence | protein stability index
93 | YRSVLGREEQLI | 0.7 ± 0.057
94 | YRYGVSWFDWRI | 0.784 ± 0.058
95 | YSEKFKDRFKED | 0.67 ± 0.015
96 | YSGRCGVKLFNG | 0.705 ± 0.073
97 | YSGSPPFPLSRL | 0.801 ± 0.027
98 | YSIAYGVLWRYR | 0.5687 ± 0.0051
99 | YSLIPLSSISQH | 0.685 ± 0.074
100 | YSNCPQPRVISD | 0.6 ± 0.063
101 | YSPSCPRTSPLL | 0.726 ± 0.046
102 | YSQSRPYFRIPG | 0.647 ± 0.029
103 | YSSGKPMEITIA | 0.678 ± 0.084
104 | YTHIRGVLFGVR | 0.704 ± 0.034
105 | YTSHPVLPEVNG | 0.695 ± 0.035
106 | YTSTPTLYTRLW | 0.689 ± 0.014
107 | YTWHKLFFAYAI | 0.528 ± 0.0059
108 | YVLSVKEGTNLP | 0.709 ± 0.023
109 | YVSYVFDYEVRH | 0.709 ± 0.051
110 | YVTSKLMNLVLY | 0.662 ± 0.066
111 | YVVWGGVQGSVL | 0.747 ± 0.046
112 | YWSFRKGGLALY | 0.651 ± 0.019
